The record followed here is patent US20220251154A1 (HANGZHOU SUMGEN BIOTECH, published 2022).

In general, IC50 refers to the concentration that inhibits the measured activity by half. Higher therefore signals a need for much substance.

One test concerns the target T1, PD-L1-Fc (UniProt Q9NZQ7 19-239, limits assumed).
T1 construct: not shown: Fc part
As to the kind of experiment: competition ELISA: PD-L1-Fc coated, Biotin-Fc-PD1 (1 ug/ml) added with the binder; blocks PD-1/PD-L1.

Test [1] concerns the target T2, biotin-labeled CD47 (Biotin-Fc-CD47) (UniProt Q08722 19-139, limits assumed, biotin-labeled (site not stated)).
T2 construct: not shown: Fc part
Kind of test: competition ELISA: SIRPα-His coated, Biotin-Fc-CD47 (2 ug/ml) pre-incubated with the binder; blocks CD47/SIRPα. Background: In an ELISA, binding on a coated surface is turned into a signal by an enzyme label.

T1 sequence (Q9NZQ7 19-239 limits assumed): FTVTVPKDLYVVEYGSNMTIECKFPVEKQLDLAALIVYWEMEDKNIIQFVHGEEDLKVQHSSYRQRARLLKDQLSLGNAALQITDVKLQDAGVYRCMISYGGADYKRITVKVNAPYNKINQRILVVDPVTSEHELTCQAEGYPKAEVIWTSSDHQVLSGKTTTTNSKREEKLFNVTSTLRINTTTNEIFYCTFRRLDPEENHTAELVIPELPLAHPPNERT
T2 sequence (Q08722 19-139 limits assumed): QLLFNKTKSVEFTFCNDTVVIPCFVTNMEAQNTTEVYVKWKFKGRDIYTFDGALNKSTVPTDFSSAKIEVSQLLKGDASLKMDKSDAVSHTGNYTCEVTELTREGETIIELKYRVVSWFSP

B1: fusion protein SG12474 (bispecific antibody, human IgG1, kappa, N297A)
heavy: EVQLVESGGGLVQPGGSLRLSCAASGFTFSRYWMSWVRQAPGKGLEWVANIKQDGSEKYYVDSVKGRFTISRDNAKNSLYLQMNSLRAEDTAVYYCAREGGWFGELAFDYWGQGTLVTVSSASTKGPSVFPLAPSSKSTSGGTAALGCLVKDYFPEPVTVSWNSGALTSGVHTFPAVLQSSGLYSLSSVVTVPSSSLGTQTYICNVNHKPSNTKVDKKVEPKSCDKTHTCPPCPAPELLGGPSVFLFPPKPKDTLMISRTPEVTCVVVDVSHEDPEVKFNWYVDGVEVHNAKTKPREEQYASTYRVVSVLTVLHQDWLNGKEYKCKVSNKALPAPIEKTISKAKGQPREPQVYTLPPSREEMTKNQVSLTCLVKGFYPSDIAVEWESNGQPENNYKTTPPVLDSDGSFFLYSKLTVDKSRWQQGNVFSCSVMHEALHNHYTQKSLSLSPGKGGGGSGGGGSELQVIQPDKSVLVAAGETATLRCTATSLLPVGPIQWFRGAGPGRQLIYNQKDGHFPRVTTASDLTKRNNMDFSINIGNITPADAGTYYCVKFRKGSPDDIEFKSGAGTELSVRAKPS
light: EIVLTQSPGTLSLSPGERATLSCRASQRVSSSYLAWYQQKPGQAPRLLIYDASSRATGIPDRFSGSGSGTDFTLTISRLEPEDFAVYYCQQYGSLPWTFGQGTKVEIKRTVAAPSVFIFPPSDEQLKSGTASVVCLLNNFYPREAKVQWKVDNALQSGNSQESVTEQDSKDSTYSLSSTLTLSKADYEKHKVYACEVTHQGLSSPVTKSFNRGEC
notes: First polypeptide chain is the SG1202 light chain
As to B1, the figures for the IC50 (with PD-L1-Fc; in test [1]) were 9.12 nM and 0.77 nM, respectively.
